Values belong to the molecule of their own block, whether it stands above or below them.
Key:
[1] = target: human B7-H2, full length, expressed on cells (B7-H2+293T cells) (human) (UniProt O75144); experiment: cell-based or functional assay
[2] = target: T1, mouse CD28Ig fusion protein (mouse, UniProt P31041 20-149); experiment: CDS well image, 293T cells transfected with the mouse gene, stained with the mouse fusion protein
T1 construct: Bought from R&D Systems; Ig (Fc) part not given
T1 sequence (looked up): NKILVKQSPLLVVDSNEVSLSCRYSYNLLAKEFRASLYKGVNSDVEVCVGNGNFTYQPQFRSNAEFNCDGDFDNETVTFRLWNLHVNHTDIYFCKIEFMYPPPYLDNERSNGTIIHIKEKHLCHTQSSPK

ICOSIg = target: T2, ICOSIg (Mus musculus, UniProt Q9WVS0); experiment: as above
T2 construct: Ig fusion protein purchased from R&D systems; also called mouse ICOSIg fusion protein
T2 sequence (fusion protein, looked up): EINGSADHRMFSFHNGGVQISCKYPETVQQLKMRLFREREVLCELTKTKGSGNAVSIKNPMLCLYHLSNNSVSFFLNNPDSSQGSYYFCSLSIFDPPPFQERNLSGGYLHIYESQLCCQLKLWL

[3] = target: T3, mouse CTLA-4Ig fusion protein (mouse, UniProt P09793 36-162); experiment: as above
T3 construct: Bought from R&D Systems; Ig (Fc) part not given

B7-DCIg = target: T4, B7-DCIg (Mus musculus, UniProt Q9WUL5); experiment: as above
T4 construct: Ig fusion protein purchased from R&D systems; also called mouse B7-DCIg fusion protein
T4 sequence (fusion protein, looked up): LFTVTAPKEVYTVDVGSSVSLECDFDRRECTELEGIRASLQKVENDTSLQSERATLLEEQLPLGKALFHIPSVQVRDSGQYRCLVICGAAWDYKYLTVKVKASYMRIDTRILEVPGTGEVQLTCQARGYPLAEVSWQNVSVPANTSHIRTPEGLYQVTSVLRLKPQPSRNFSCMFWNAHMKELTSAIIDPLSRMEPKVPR

B7-H1Ig = target: T5, B7-H1Ig (Mus musculus, UniProt Q9EP73); experiment: as above
T5 construct: Ig fusion protein purchased from R&D systems; also called mouse B7-H1Ig fusion protein

PD-1Ig = target: T6, PD-1Ig (Mus musculus, UniProt Q02242); experiment: as above
T6 construct: Ig fusion protein purchased from R&D systems; also called mouse PD-1Ig fusion protein
T6 sequence (fusion protein, looked up): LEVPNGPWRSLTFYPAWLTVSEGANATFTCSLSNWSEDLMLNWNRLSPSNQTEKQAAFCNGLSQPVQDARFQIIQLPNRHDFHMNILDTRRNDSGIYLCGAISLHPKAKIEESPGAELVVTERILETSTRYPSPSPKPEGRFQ

B7-H2Ig = target: T7, B7-H2Ig (Mus musculus, UniProt Q9JHJ8); experiment: as above
T7 construct: Ig fusion protein purchased from R&D systems; also called mouse B7-H2Ig fusion protein
T7 sequence (fusion protein, looked up): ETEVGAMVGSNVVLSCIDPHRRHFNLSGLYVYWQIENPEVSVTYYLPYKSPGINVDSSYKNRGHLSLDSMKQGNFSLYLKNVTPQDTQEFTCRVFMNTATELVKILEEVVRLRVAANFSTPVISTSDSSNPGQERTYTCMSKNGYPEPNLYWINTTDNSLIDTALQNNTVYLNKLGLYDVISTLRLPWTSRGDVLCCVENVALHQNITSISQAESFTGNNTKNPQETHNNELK

[4] = target: T8, human B7-H2, full length, expressed on cells (B7-H2+293T cells) (human, UniProt O75144 19-302); experiment: CDS well image, 293T cells transfected with the human gene, stained with the human fusion protein
T8 construct: This id also stands for endogenous B7-H2 on monocyte-derived dendritic cells in the functional rows; also called ICOSL; ICOSLG
T8 sequence: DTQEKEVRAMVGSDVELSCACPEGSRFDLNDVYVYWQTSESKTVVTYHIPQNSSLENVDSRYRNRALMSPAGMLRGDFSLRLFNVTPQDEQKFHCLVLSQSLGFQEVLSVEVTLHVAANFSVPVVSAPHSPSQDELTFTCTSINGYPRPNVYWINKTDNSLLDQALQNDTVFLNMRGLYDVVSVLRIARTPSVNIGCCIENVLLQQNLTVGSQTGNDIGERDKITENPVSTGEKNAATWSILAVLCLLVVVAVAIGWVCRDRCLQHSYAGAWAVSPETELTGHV

[5] = target: T9, human B7-DC expressed on 293T cells (human, UniProt Q9BQ51 20-273); experiment: as above
T9 construct: whole, on cells
T9 sequence (looked up): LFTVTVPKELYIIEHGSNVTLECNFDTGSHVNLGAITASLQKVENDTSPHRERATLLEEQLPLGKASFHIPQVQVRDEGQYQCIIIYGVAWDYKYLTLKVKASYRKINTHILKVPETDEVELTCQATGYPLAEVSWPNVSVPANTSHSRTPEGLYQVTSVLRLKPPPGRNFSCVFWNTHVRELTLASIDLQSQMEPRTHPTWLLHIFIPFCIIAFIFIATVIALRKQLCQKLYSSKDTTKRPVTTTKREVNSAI

[6] = target: T10, human B7-1 (CD80) expressed on 293T cells (human, UniProt P33681 35-288); experiment: as above
T10 construct: whole, on cells
T10 sequence (looked up): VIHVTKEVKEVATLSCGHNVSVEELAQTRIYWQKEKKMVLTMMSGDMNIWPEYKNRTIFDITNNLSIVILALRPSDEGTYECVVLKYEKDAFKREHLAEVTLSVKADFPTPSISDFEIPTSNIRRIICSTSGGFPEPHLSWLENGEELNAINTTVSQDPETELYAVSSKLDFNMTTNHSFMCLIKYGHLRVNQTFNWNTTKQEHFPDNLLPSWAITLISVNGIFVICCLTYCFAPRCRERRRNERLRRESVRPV

[7] = target: T11, human B7-2 (CD86, B70) expressed on 293T cells (human, UniProt P42081 24-329); experiment: as above
T11 construct: whole, on cells
T11 sequence (looked up): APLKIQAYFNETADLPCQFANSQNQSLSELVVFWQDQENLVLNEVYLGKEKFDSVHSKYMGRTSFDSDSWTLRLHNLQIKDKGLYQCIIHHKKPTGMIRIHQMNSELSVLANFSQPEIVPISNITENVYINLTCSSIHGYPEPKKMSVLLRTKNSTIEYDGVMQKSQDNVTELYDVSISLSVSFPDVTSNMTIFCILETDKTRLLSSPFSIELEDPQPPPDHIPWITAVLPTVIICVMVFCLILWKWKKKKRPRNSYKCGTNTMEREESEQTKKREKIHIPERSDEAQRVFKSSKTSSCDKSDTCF

[8] = target: T12, human B7-H1 expressed on 293T cells (human, UniProt Q9NZQ7 19-290); experiment: as above
T12 construct: whole, on cells

[9] = target: T13, human CD28, full length, expressed on cells (CD28+293T cells) (human, UniProt P10747 19-220); experiment: as above
T13 construct: This id also stands for CD28 on purified human T cells in the functional rows; also called CD28+ cells
T13 sequence (P10747 19-220): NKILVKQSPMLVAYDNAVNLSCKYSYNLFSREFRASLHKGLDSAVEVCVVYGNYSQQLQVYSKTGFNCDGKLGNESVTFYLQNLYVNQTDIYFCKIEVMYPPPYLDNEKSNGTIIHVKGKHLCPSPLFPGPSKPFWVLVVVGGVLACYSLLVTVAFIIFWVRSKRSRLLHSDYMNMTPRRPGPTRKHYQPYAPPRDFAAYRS

T5 sequence (Q9EP73 19-238 limits assumed): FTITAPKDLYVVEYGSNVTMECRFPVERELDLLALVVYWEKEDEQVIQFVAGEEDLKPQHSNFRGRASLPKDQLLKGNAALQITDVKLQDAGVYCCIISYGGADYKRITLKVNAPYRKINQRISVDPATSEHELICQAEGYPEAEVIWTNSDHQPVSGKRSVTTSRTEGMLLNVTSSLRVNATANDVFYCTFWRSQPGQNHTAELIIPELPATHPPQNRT
T12 sequence (Q9NZQ7 19-290): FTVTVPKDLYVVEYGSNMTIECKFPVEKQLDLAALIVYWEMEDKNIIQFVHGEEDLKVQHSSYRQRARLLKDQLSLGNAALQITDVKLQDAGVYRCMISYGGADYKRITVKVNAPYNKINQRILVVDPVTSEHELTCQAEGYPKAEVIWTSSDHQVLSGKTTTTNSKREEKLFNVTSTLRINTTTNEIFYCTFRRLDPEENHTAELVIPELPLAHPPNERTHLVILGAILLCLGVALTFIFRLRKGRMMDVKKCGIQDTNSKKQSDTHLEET

Molecule: mouse anti-human B7-H2 mAb 9F.8A4 (antibody)
tetanus toxoid-elicited IFNγ production of memory T cells; inhibition [1]: > 90% | tetanus toxoid-elicited proliferation of memory T cells; inhibition [1]: > 50%

B1: B7-1 (ligand)
chain: VDEQLSKSVKDKVLLPCRYNSPHEDESEDRIYWQKHDKVVLSVIAGKLKVWPEYKNRTLYDNTTYSLIILGLVLSDRGTYSCVVQKKERGTYEVKHLALVKLSIKADFSTPNITESGNPSADTKRITCFASGGFPKPRFSWLENGRELPGINTTISQDPESELYTISSQLDFNTTRNHTIKCLIKYGDAHVSEDFTWEKPPEDPPDSKNTLVLFGAGFGAVITVVVIVVIIKCFCKHRSCFRRNEASRETNNSLTFGPEEALAEQTVFL
binding result [2]: binds | binding result (ICOSIg): no binding | binding result [3]: binds | binding result (B7-DCIg): no binding | binding result (B7-H1Ig): binds | binding result (PD-1Ig): no binding | binding result (B7-H2Ig): no binding

B2: B7-2 (ligand)
chain: VSVETQAYFNGTAYLPCPFTKAQNISLSELVVFWQDQQKLVLYEHYLGTEKLDSVNAKYLGRTSFDRNNWTLRLHNVQIKDMGSYDCFIQKKPPTGSIILQQTLTELSVIANFSEPEIKLAQNVTGNSGINLTCTSKQGHPKPKKMYFLITNSTNEYGDNMQISQDNVTELFSISNSLSLSFPDGVWHMTVVCVLETESMKISSKPLNFTQEFPSPQTYWKEITASVTVALLLVMLLIIVCHKKPNQPSRPSNTASKLERDSNADRETINLKELEPQIASAKPNAE
binding result [2]: binds | binding result (ICOSIg): no binding | binding result [3]: binds | binding result (B7-DCIg): no binding | binding result (B7-H1Ig): no binding | binding result (PD-1Ig): no binding | binding result (B7-H2Ig): no binding

B3: human B7-1Ig fusion protein (Fc fusion, UniProt P33681 35-242, looked up)
chain: VIHVTKEVKEVATLSCGHNVSVEELAQTRIYWQKEKKMVLTMMSGDMNIWPEYKNRTIFDITNNLSIVILALRPSDEGTYECVVLKYEKDAFKREHLAEVTLSVKADFPTPSISDFEIPTSNIRRIICSTSGGFPEPHLSWLENGEELNAINTTVSQDPETELYAVSSKLDFNMTTNHSFMCLIKYGHLRVNQTFNWNTTKQEHFPDN
notes: Bought from R&D Systems; Ig (Fc) part not given
binding result [4]: no binding | binding result [5]: no binding | binding result [6]: no binding | binding result [7]: no binding

The remaining lines, values ahead:

binding result (B7-H2Ig): no binding
B4: B7-DC (ligand, Mus musculus, UniProt Q9WUL5 20-247, looked up)
membrane protein: LFTVTAPKEVYTVDVGSSVSLECDFDRRECTELEGIRASLQKVENDTSLQSERATLLEEQLPLGKALFHIPSVQVRDSGQYRCLVICGAAWDYKYLTVKVKASYMRIDTRILEVPGTGEVQLTCQARGYPLAEVSWQNVSVPANTSHIRTPEGLYQVTSVLRLKPQPSRNFSCMFWNAHMKELTSAIIDPLSRMEPKVPRTWPLHVFIPACTIALIFLAIVIIQRKRI

binding result [8]: no binding | binding result [4]: no binding | binding result [5]: no binding | binding result [6]: no binding | binding result [7]: no binding | binding result [9]: no binding
B5: B7-DCIg (Fc fusion, Homo sapiens, UniProt Q9BQ51 20-219, looked up)
fusion protein: LFTVTVPKELYIIEHGSNVTLECNFDTGSHVNLGAITASLQKVENDTSPHRERATLLEEQLPLGKASFHIPQVQVRDEGQYQCIIIYGVAWDYKYLTLKVKASYRKINTHILKVPETDEVELTCQATGYPLAEVSWPNVSVPANTSHSRTPEGLYQVTSVLRLKPPPGRNFSCVFWNTHVRELTLASIDLQSQMEPRTHP
notes: Ig fusion protein purchased from R&D systems; also called human B7-DCIg fusion protein

binding result [8]: no binding | binding result [4]: no binding | binding result [5]: no binding | binding result [6]: no binding | binding result [7]: no binding
B6: human B7-H2Ig fusion protein (Fc fusion)
chain: DTQEKEVRAMVGSDVELSCACPEGSRFDLNDVYVYWQTSESKTVVTYHIPQNSSLENVDSRYRNRALMSPAGMLRGDFSLRLFNVTPQDEQKFHCLVLSQSLGFQEVLSVEVTLHVAANFSVPVVSAPHSPSQDELTFTCTSINGYPRPNVYWINKTDNSLLDQALQNDTVFLNMRGLYDVVSVLRIARTPSVNIGCCIENVLLQQNLTVGSQTGNDIGERDKITENPVSTGEKNAATWS
notes: Ig (Fc) part not given
